According to patent US6506592 (BOARD OF REGENTS OF THE UNIVERSITY OF NEBRASKA, dated 2003):

Target: T1, Staphylococcus protein A (Staphylococcus, UniProt P38507 37-477)
T1 construct: Used to remove antibody-antigen complexes in the immunoprecipitation
Assay: immunoprecipitation from T2 plant MI52E extract; residual alpha-glucosidase activity in the supernatant
Procedure: Tobacco leaf extracts to be used for detection of glycosyl hydrolase antigens were concentrated 3-fold by (NH_4)_2 SO_4 precipitation. […] Proteins (Amersham) were transferred to nitrocellulose and incubated. […] Concentrated plant protein extracts were diluted 1:10 in 10 mM tris-Cl pH 7.0. 50 ul of anti-malA antibodies were added to 200 ul of diluted extract and incubated for 2 hours at 4° C. with gentle agitation. […] Blots were soaked with a chemiluminescent substrate solution (Amersham) and results visualized by autoradiography and quantified by densitometry.
The residual activity remaining in the treated samples was then determined by enzyme assay.

B1: Sulfolobus solfataricus alpha-glucosidase (malA protein), recombinant (enzyme)
chain: MQTIKIYENKGVYKVVIGEPFPPIEFPLEQKISSNKSLSELGLTIVQQGNKVIVEKSLDLKEHIIGLGEKAFELDRKRKRYVMYNVDAGAYKKYQDPLYVSIPLFISVKDGVATGYFFNSASKVIFDVGLEEYDKVIVTIPEDSVEFYVIEGPRIEDVLEKYTELTGKPFLPPMWAFGYMISRYSYYPQDKVVELVDIMQKEGFRVAGVFLDIHYMDSYKLFTWHPYRFPEPKKLIDELHKRNVKLITIVDHGIRVDQNYSPFLSGMGKFCEIESGELFVGKMWPGTTVYPDFFREDTREWWAGLISEWLSQGVDGIWLDMNEPTDFSRAIEIRDVLSSLPVQFRDDRLVTTFPDNVVHYLRGKRVKHEKVRNAYPLYEAMATFKGFRTSHRNEIFILSRAGYAGIQRYAFIWTGDNTPSWDDLKLQLQLVLGLSISGVPFVGCDIGGFQGRNFAEIDNSMDLLVKYYALALFFPFYRSHKATDGIDTEPVFLPDYYKEKVKEIVELRYKFLPYIYSLALEASEKGHPVIRPLFYEFQDDDDMYRIEDEYMVGKYLLYAPIVSKEESRLVTLPRGKWYNYWNGEIINGKSVVKSTHELPIYLREGSIIPLEGDELIVYGETSFKRYDNAEITSSSNEIKFSREIYVSKLTITSEKPVSKIIVDDSKEIQVEKTMQNTYVAKINQKIRGKINLE
notes: 693 amino acids, 80.5 kDa subunit; Assayed as produced in transgenic tobacco (T2 plant MI52E extract) and as an E. coli-derived positive control; both come from the same malA coding region; also called malA polypeptide; recombinant alpha-glucosidase
  binding result: no binding
